Target: μ opioid receptor (MOR) (human) (UniProt P35372)
Sequence of UniProt P35372 (P35372 whole entry): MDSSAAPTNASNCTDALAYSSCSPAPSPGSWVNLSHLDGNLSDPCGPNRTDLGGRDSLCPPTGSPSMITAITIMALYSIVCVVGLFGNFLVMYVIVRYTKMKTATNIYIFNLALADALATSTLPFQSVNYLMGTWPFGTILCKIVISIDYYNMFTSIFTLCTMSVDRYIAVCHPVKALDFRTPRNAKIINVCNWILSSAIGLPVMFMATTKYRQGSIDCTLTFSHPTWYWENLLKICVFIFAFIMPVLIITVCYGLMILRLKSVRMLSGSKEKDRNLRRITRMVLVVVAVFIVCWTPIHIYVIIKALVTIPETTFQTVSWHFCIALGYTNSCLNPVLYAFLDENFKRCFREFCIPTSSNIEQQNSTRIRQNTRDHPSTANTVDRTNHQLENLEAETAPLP

TRUPATH BRET2, Ggust activation, 0 mM sodium, pEC50: 10.2 pEC50 | TRUPATH BRET2, Ggust activation, 140 mM sodium, pEC50: 9.57 pEC50 | TRUPATH BRET2, Gi1 activation, 0 mM sodium, pEC50: 9.01 pEC50 | TRUPATH BRET2, Gi1 activation, 140 mM sodium, pEC50: 7.55 pEC50 | TRUPATH BRET2, Gi2 activation, 0 mM sodium, pEC50: 9.97 pEC50 | TRUPATH BRET2, Gi2 activation, 140 mM sodium, pEC50: 9.17 pEC50 | TRUPATH BRET2, Gi3 activation, 0 mM sodium, pEC50: 9.43 pEC50 | TRUPATH BRET2, Gi3 activation, 140 mM sodium, pEC50: 8.12 pEC50 | TRUPATH BRET2, GoA activation, 0 mM sodium, pEC50: 9.82 pEC50 | TRUPATH BRET2, GoA activation, 140 mM sodium, pEC50: 9.08 pEC50 | TRUPATH BRET2, GoB activation, 0 mM sodium, pEC50: 9.77 pEC50 | TRUPATH BRET2, GoB activation, 140 mM sodium, pEC50: 8.52 pEC50 | TRUPATH BRET2, Gz activation, 0 mM sodium, pEC50: 9.66 pEC50 | TRUPATH BRET2, Gz activation, 140 mM sodium, pEC50: 8.82 pEC50
Substance: DAMGO (peptide)
